US20210230266A1 (SINGAPORE HEALTH SERVICES PTE, published 2021)

T1: Human IL-11 (human, UniProt P20809 22-199)
T1 construct: Recombinant human IL-11 (GenScript Cat. No. Z03108-1) or IL-11 secreted by human cells; the mature form is said to have 178 residues; also called recombinant human IL-11; endogenously produced IL-11
T1 sequence: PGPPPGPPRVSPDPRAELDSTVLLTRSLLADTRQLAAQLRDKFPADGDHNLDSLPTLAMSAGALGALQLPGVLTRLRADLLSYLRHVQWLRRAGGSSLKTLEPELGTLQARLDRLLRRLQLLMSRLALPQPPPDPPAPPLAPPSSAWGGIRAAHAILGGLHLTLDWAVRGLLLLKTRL

T2: Mouse IL-11 (mouse, UniProt P47873 22-199, limits assumed)
T2 construct: also called murine IL-11; recombinant murine IL-11
T2 sequence (looked up): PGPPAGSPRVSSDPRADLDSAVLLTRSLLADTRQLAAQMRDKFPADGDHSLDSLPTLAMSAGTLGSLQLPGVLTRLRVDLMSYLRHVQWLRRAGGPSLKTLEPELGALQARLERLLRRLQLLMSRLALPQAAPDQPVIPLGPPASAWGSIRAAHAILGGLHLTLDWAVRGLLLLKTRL


Experiments:
[1] = biological target: T1, Human IL-11; test: ELISA
Description: (§1) The soluble scFv were produced by recombinant expression in E. coli, and analysed for their ability to bind to human IL-11 and murine IL-11 by ELISA. Briefly, the respective antigen was coated to wells of an ELISA plate, the cell culture supernatant containing the respective scFv was added at a 1:2 dilution, and binding was detected.

[2] = biological target: T2, Mouse IL-11; test: ELISA
Description: as §1

[3] = biological target: T1, Human IL-11; test: cell-based or functional assay
[4] = biological target: T1, Human IL-11; test: ELISA on coated recombinant human IL-11 (100 ng/well), scFv-Fc
Description: The light chain shuffled anti-IL-11 antibodies were analysed to determine the EC50 for binding to human IL-11 by ELISA according to standard methods. Briefly, wells of microtiter plates were coated with recombinant human IL-11 (100 ng/well), scFv-Fc comprising the VH and VL domains of the clones were added in a dilution series and antibody binding was detected using a polyclonal antibody detection system.

| Binder | hIL11 - average signal [1] | mIL11 - average signal [2] | MMP2 production, Experiment 1 (human atrial fibroblasts + TGFB1) [3] [ng/mL] | MMP2 production, Experiment 2 (human atrial fibroblasts + TGFB1) [3] [ng/mL] | EC50 [4] [µg/mL] |
| --- | --- | --- | --- | --- | --- |
| YU100-G10 (antibody) QVQLVQSGGGVVQPGRSLRLSCAASGFTFSSYGMHWVRQAPGKGLEWVAVISYDGSNKYYADSVKGRFTISRDNSKNTLYLQMNSLRAEDTAVYYCAKIGATDPLDYWGQGTLVTVSSGSASAPKLEEGEFSEARVQSALTQPASVSGSLGQSITMSCTGTRRDVGGYDFVSWYQQYPGKAPKLIIYDVSNRPSGVSNRFTGSKSGNTASLTISGLQAEDEADYYCCSYAGTYTWVFGGGTKVTVL | 0.262 | 0.404 | 54 | 45.4 | 0.034 |
| YU100-E07 (antibody) QVQLQESGGGVVQPGRSLRLSCAASGFTFSSYGMHWVRQAPGKGLEWVAVISYDGSNRYYADSVKGRFAISRDNSKNTLYLQMNSLRAEDTAVYYCAKIGATDPLDYWGQGTLVTVSSGSASAPKLEEGEFSEARVQSALTQPRSVSGSPGQSVTISCTGTSSDVGGYDYVSWYQQHPGKAPELMIYDVTKRPSGVADRFSGSKSGNTASLTISGLQAEDEADYYCCSYAGRYTWVFGGGTKLTVL | 0.193 | 0.247 | 52.1 | 46.5 | 0.023 |
| YU100-F07 (antibody) QVQLVESGGGVVQPGRSLRLSCAASGFTFSSYAMHWVRQAPGKGLEWVAVISYDGSNKYYADSVKGRFTISRDNSKNTLYLQMNSLRAEDTAVYYCARIMGYDYGDYDVVDYWGQGTLVTVSSGSASAPKLEEGEFSEARVQSALTQPRSVSVSPGQSVTISCTGTSSDVGGYEYVSWYQQHPGKAPKLMIYDVTKRPSGVPDRFSGSKSGNTASLTISGLQGEDAADYYCCSYAGSYTWVFGGGTTVTVL | 0.172 | 0.148 | 53.1 | 46.6 | 0.041 |
| YU100-E10 (antibody) QVQLVQSGGGVVQPGRSLRLSCAASGFTFSSYGMHWVRQAPGKGLEWVAVISYDGSNKYYADSVKGRFTISRDNSKNTLYLQMNSLRAEDTAVYYCAKIGATDPLDYWGQGTLVTVSSGSASAPKLEEGEFSEARVQSALTQPRSVSGSPGQSVTISCTGTSSDVGGYNYVSWYQQHPGKAPKLMIFDVSQRPSGVPDRFSASKSGNTASLTISGLQAEDEADYYCCSYAGSYTWVFGGGTKLTVL | 0.338 | 0.297 | 56.1 | 47 | 0.033 |
| YU100-D07 (antibody) QVQLVESGGGVVQPGRSLRLSCAASGFTFSSYAMHWVRQAPGKGLEWVAVISYDGSNKYYADSVKGRLTISRDNSKNTLYLQMNSLRAEDTAVYYCARIMGYDYGDYDVVDYWGQGTLVTVSSGSASAPKLEEGEFSEARVQSALTQPRSVSGSPGQSVTISCTGTSGDVGTYDYVSWYQQHPGKAPKLMIYDVSKRPSGVPDRFSGSKSGNTASLTISGLQAEDEADYYCNSYAGSYTWVFGGGTKLTVLGQPKTAPSVTLFPPSS | 0.246 | 0.322 | – | – | – |
| YU100-F06 (antibody) QVQLVESGGGVVQPGRSLRLSCAASGFTFSSYGMHWVRQAPGKGLEWVAVISYDGSNKYYADSVKGRFTISRDNSKNTLYLQMNSLRAEDTAVYYCARIMGYDYGDYDVVDYWGQGTLVTVSSGSASAPKLEEGEFSEARVQSALTQPRSVSGSPGQSVTISCTGSSSDVGGYNFVSWYRQHPGEAPKLVIFDVNKRPSGVPDRFSGSKSGNTASLTISGLQTEDEADYFCCSYAGGYTWVFGGGTKVTVV | 0.16 | 0.481 | – | – | – |
| YU100-E08 (antibody) QVQLVQSGGGVVQPGRSLRLSCAASGFTFSSYAMHWVRQAPGKGLEWVAVISYDGSNKYYADSVKGRFTISRDNSKNTLYLQMNSLRAEDTAVYYCARIMGYDYGDYDVVDYWGQGTLVTVSSGSASAPKLEEGEFSEARVQSALTQPRSVSGSPGQSVTISCTGTSSDVGGYNYVSWYQQHPGKAPKLMIYDVSRRPSGVPDRFSGSKSGNTASLTISGLQAEDEADYYCCSYAGNYTWMFGGGTKLTVL | 0.214 | 0.251 | 48.2 | 59.7 | 0.032 |
| YU100-G11 (antibody) QVQLVESGGGVVQPGRSLRLSCAASGFTFSSYGMHWVRQAPGKGLEWVAVISYDGSNKYYADSVKGRFTISRDNSKNTLYLQMNSLRAEDTAVYYCARIMGYDYGDYDVVDYWGQGTLVTVSSGSASAPKLEEGEFSEARVQSALTQPRSVSGSPGQSVTISCTGTSSDVGGYNYVSWYQQHPGKAPKLTLYDVGKRPSGVPDRFSGSKSGNTASLTISGLQAEDEADYYCCSYAGGYTWVFGGGTKVTVV | 0.498 | 0.507 | – | – | – |
| YU100-E09 (antibody) QVQLVESGGGVVQPGRSLRLSCAASGFTFSSYAMHWVRQAPGKGLEWVAVISYDGSNKYYADSVKGRFTISRDNSKNTLYLQMNSLRAEDTAVYYCARIMGYDYGDYDVVDYWGQGTLVTVSSGSASAPKLEEGEFSEARVQSALTQPRSVSGSPGQSVTISCTGTSSDVGDYDYVSWYQQHPGKAPKLIIYDVTKRPSGIPDRFSGSKSGNTASLTISGLQAEDEADYYCCSYAGSYTWVFGRGTKLTVL | 0.224 | 0.335 | 51.7 | 44.4 | 0.019 |
| YU112-C09 (antibody) QVQLVQSGGGVVQPGRSLRLSCAASGFTFGSYGMHWVRQAPGKGLEWVAVISYDGSNKYYADSVKGRFTISRDNSKNTLYLQMNSLRAEDTAVYYCAKGSYYFDYWGQGTLVTVSSGSASAPKLEEGEFSEARVETTLTQSPATLSVSPGERATLSCRASQSFSSSYLAWYQQKPGQAPRLLIYGASRRAPGIPDRFSGSGSGTDFSLTISRLEPEDFAVYYCQQSSTSPTWAFGRGTKVEVK | 0.593 | 0.898 | – | – | – |
| YU112-G01 (antibody) QVQLVESGGGVVQPGRSLRLSCAASGFTFSSYGMHWVRQAPGKGLEWVAVISYDGSNKYYADSVKGRFTISRDNSKNTLYLQMNSLRAEDTAVYYCAKLSGPNGVDYWGQGTLVTVSSGSASAPKLEEGEFSEARVQSALTQPRSVSGSPGQSVTISCTGTISDVGGYNYVSWYQQHPGKAPKLMIYDVTKRPSGVPDRFSGSKSGNTASLTISGLQAEDEAGYYCSSYAGSYTWVFGGGTELTVL | 0.528 | 0.794 | 47.6 | 43.8 | – |
| YU100-F11 (antibody, V domains shown, light chain-shuffled human anti-IL-11 clone) VH: QVQLVESGGGVVQPGRSLRLSCAASGFTFSSYGMHWVRQAPGKGLEWVAVISYDGSNKYYADSVKGRFTISRDNSKNTLYLQMNSLRAEDTAVYYCAKIGATDPLDYWGQGTLVTVSS VL: QSALTQPASVSGSPGQSITISCTGSSSDVAGYNYVSWYQQHPGKAPKLMIYDVTKRPSGVPDRFSGSKSGNTASLTISGLQAEDEADYYCCSYAGSYTWVFGGGTQLTVLG | 0.319 | 0.395 | 44.5 | 37.6 | 0.027 |
| YU100-B09 (antibody, V domains shown) VH: QVQLVQSGGGVVQPGRSLRLSCAASGFTFSSYGMHWVRQAPGKGLEWVAVISYDGSNKYYADSVKGRFTISRDNSKNTLYLQMNSLRAEDTAVYYCAKIGATDPLDYWGQGTLVTVSS | 0.21 | 0.293 | – | – | – |
| YU100-F05 (antibody) QVQLQQSGGGVVQPGRSLRLSCAASGFTFSSYGMHWVRQAPGKGLEWVAVISYDGSNKYYADSVKGRFTISRDNSKNTLYLQMNSLRAEDTAVYYCAKIGATDPLDYWGQGTLVTVSSGSASAPKLEEGEFSEARVQAVLTQPASVSGSPGQSITISCTGTSSDIGGYNYVSWYQQHPGTAPKLMIYDVSSRPSGVSNRFSGSKSGNTASLTISGLQAEDEADYYCCSYAGSYTWVFGGGTKMTVL | 0.304 | 0.542 | – | – | – |
